Two substances from publication PMC2641028 can be followed below.

The target in experiment [1] is CP-MVP-Z recombinant vaults.
For experiment [2], the target named is CP-MVP-Z recombinant vaults. Kind of experiment: ELISA. A general note: ELISA stands for enzyme-linked immunosorbent assay.

Turning to mouse IgG (Sigma) (antibody), the other in experiment [1] was 52%. The term EC50 denotes the midpoint of the concentration-response curve. For the substance rabbit IgG (Sigma) (antibody), the concentration giving a half-maximal response (EC50) in experiment [2] stood at 250 pM. Moreover, the other in experiment [1] came out at 92%.
